Laboratory results reported in patent US20180362643A1 (Amgen, published 2018).
Positions count from the first letter of the chain named. Ends that are not written are not given here.

B1: mAb4 (antibody, V domains shown)
VH: QSVEESGGRLVTPGTPLTLTCTASGIDLSSYAMIWVRQAPGEGLEYIGFIDAGDGNTYYASWAKGRFTISKTSTTVDLKITSPTTEDTATYFCARGDPGWSNGFALWGQGTLVTVSS
VL: DIVMTQTPASVSGAVGGTVTIKCQASQSIRNELSWYQQKPGQPPKLLIYKASTLASGVPSRFSGSGFGTEFTLTISGVQCDDAATYYCQNNYGTRRNNYVFPFGGGTEVVVKG
notes: Rabbit monoclonal antibody (SLAM), recombinant; also called monoclonal anti-PACAP antibody 4; 4 (c47)
B2: mAb3 (antibody, V domains shown)
VH: QSLEESGGGLVQPGASLTLTCTASGFSFSSNYYMCWVRQAPGKGLEWIACIFTGSSGSTYYASWAKGRFTISKTSSTTVTLHVTSLTAADTATYFCARDRALSVVGYFYAAYYFDFWGPGTLVTVSS
VL: DVVMTQTPSPVSAAVGGTVTINCRASEDIESFLAWYQQKPGQPPKLLMSRTSTLESGVPSRFKGSGSGTEFTLTISDLECADAATYYCQCTDGSSSSSSYGWDAFGGGTEVVVKG
notes: Rabbit monoclonal antibody (SLAM), recombinant; also called monoclonal anti-PACAP antibody 3; 3 (c89)
B3: mAb1 (antibody, V domains shown)
VH: QSLEESGGDLVKPGASLTLTCKASGIAFSNDYMCWVRQAPGKGLEWIACIFTGSSGSTYYASWAKGRFTISKTSSTTVTLQMTSLTAADTATYFCARDRAISVLGYFYAAYFFDFWGPGTLVTVSS
VL: B2 VL with M48I, P59S, T72I
notes: Rabbit monoclonal antibody (SLAM), cloned, recombinantly expressed and purified; also called monoclonal anti-PACAP antibody 1; 1 (c20)

Columns and labels:
[1] = target: T1, full-length human PACAP38 (human, not fully specified); test: cell-based or functional assay
T1 peptide: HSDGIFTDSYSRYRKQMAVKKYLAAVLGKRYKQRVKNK

human PACAP27 = target: T2, human PACAP27 (human, not fully specified); test: cell-based or functional assay
T2 peptide: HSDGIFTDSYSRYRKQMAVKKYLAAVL

[2] = target: T3, carboxy terminal PACAP38 peptide (amino acids 28-38) (human, ends and bridges not checked); test: ELISA screen of B-cell culture supernatant
T3 construct: also called C-terminal Peptide; C-terminal PACAP peptide
T3 peptide: GKRYKQRVKNK

[3] = target: T4, vasoactive intestinal peptide (VIP) (human); test: ELISA screen of B-cell culture supernatant; VIP at 100 ng/mL
T4 construct: also called human VIP
T4 peptide: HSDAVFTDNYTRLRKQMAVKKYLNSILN

[4] = target: T5, PACAP38 peptide fragment 27-38 (human, ends and bridges not checked); test: SPR (Biacore 3000) solution competition against immobilised PACAP38
T5 construct: also called peptide No. 6
T5 peptide: LGKRYKQRVKNK

[5] = target: T3, carboxy terminal PACAP38 peptide (amino …); test: ELISA screen of B-cell culture supernatant; C-terminal peptide at 500 ng/mL
Text: (§1) Rabbits were immunized with human PACAP38 peptide ([…]; SEQ ID NO: 1). Monoclonal antibodies were generated from the immunized rabbits using the Selected Lymphocyte Antibody Method (SLAM) as described in Babcook et al., Proc. Natl. Acad. Sci. USA, Vol. 93: 7843-7848, 1996. Briefly, B cells were harvested from spleens from the immunized rabbits and expanded in culture. The supernatant from the expanded B-cell cultures was initially screened for binding to an amino terminal PACAP38 peptide ([…]; SEQ ID NO: 5) and a carboxy terminal PACAP38 peptide ([…]; SEQ ID NO: 4) using an ELISA assay. From the initial screen, 2,935 N-terminal and/or C-terminal binders were identified. The affinity of these antibodies for full-length human PACAP38 (SEQ ID NO: 1) was assessed by ELISA assay.

[6] = target: T1, full-length human PACAP38; test: ELISA screen of B-cell culture supernatant; full-length PACAP38 at 10 ng/mL
Text: as §1

[7] = target: T6, PACAP38 peptide fragment 6-37 (human); test: SPR (Biacore 3000) solution competition: antibody pre-incubated 1:200 with the fragment, then injected over immobilised PACAP38
T6 construct: also called peptide No. 3
T6 peptide: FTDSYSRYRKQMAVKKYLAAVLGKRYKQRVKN
Experimental: (§2) In this experiment, various peptide fragments of PACAP38 were incubated with each of the six antibodies (mAb1, mAb2, mAb3, mAb4, mAb5, and mAb6) described in Example 2 and evaluated for their ability to inhibit binding of the antibodies to full-length PACAP38 immobilized on the sensor-chip. The binding epitopes for each of the antibodies were deduced from the set of peptides that were able to inhibit the binding of each antibody to full-length PACAP38.
(§3) Each of the six anti-PACAP antibodies was incubated at a 1:200 molar ratio (Ab: peptide fragment) with each of the peptide fragments in Table 9 at an ambient temperature for 2 hours prior to analysis. […] A second control containing 6.5 nM antibody was prepared in sample diluent to be used as the untreated control sample for each antibody. Full-length PACAP38, buffer, and each peptide fragment were also tested to evaluate non-specific binding to the immobilized PACAP38 surface.

[8] = target: T7, PACAP38 peptide fragment 6-35 (human); test: as above
T7 construct: also called peptide No. 4
T7 peptide: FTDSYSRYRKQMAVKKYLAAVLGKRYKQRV
Experimental: as §2, §3

[9] = target: T8, PACAP38 peptide fragment 4-27 (human); test: as above
T8 construct: also called peptide No. 9
T8 peptide: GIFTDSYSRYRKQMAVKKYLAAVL
Experimental: as §2, §3

[10] = target: T9, PACAP38 peptide fragment 6-38 (human, not fully specified); test: as above
T9 construct: also called peptide No. 11
T9 peptide: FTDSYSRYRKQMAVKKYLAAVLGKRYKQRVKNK
Experimental: as §2, §3

[11] = target: T10, PACAP38 peptide fragment 6-36 (human); test: as above
T10 construct: also called peptide No. 12
T10 peptide: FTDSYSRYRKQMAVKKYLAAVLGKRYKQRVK
Experimental: as §2, §3

[12] = target: T11, PACAP38 peptide fragment 6-20 (human); test: as above
T11 construct: also called peptide No. 13
T11 peptide: FTDSYSRYRKQMAVK
Experimental: as §2, §3

31-38 [13] = target: T12, 31-38 (ends and bridges not checked); test: SPR (Biacore 3000), solution competition with the peptide for antibody binding to immobilised full-length PACAP38; % inhibition
T12 construct: also called PACAP38 peptide fragment 31-38; peptide No. 5
T12 peptide: YKQRVKNK
Experimental: (§4) The binding epitopes of anti-PACAP antibodies were evaluated by using the Biacore 3000 biosensor-based instrument (GE Healthcare USA). The Biacore 3000 instrument utilizes surface plasmon resonance (SPR) technology to measure mass increase on the sensor-chip surface. The binding interactions are measured in real-time and recorded as Response Units (RU). Each binding profile (cycle) is stored in a “sensorgram” in real-time. Generally, Biacore technology entails immobilizing a ligand of interest on to a flow-cell of the sensor-chip via a coupling chemistry. The analyte (e.g. putative binding partner to the ligand of interest) is injected across the immobilized ligand allowing it to bind to the ligand-immobilized surface. The magnitude of the response is directly proportional to the mass increase on the immobilized surface due to the binding of the analyte.
as §2, §3

30-37 = target: T13, 30-37; test: as above
T13 construct: also called PACAP38 peptide fragment 30-37; peptide No. 19
T13 peptide: RYKQRVKN
Experimental: as §4, §2, §3

[14] = target: T14, PACAP38 peptide fragment 14-38 (human, not fully specified); test: as above
T14 construct: also called peptide No. 7
T14 peptide: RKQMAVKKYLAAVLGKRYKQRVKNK
Experimental: as §4, §2, §3

[15] = target: T15, PACAP38 peptide fragment 11-27 (human); test: as above
T15 construct: also called peptide No. 8
T15 peptide: SRYRKQMAVKKYLAAVL
Experimental: as §4, §2, §3

[16] = target: T16, PACAP38 peptide fragment 34-38 (human, ends and bridges not checked); test: as above
T16 construct: also called peptide No. 17; RVKNK
T16 peptide: RVKNK
Experimental: as §4, §2, §3

[17] = target: T17, amino terminal PACAP38 peptide (amino acids 1-13) (human); test: ELISA screen of B-cell culture supernatant; N-terminal peptide at 500 ng/mL; ELISA screen of B-cell culture supernatant (Example 1); N-terminal peptide 500 ng/mL; optical density
T17 construct: also called N-terminal Peptide; N-terminal PACAP peptide
T17 peptide: HSDGIFTDSYSRY
Text: as §1

[18] = target: T4, vasoactive intestinal peptide (VIP); test: ELISA screen of B-cell culture supernatant
[19] = target: T17, amino terminal PACAP38 peptide (amino …); test: ELISA screen of B-cell culture supernatant; N-terminal peptide at 500 ng/mL
[20] = target: T17, amino terminal PACAP38 peptide (amino …); test: SPR (Biacore 3000), solution competition with the peptide for antibody binding to immobilised full-length PACAP38; % inhibition
Experimental: as §4, §2, §3

[21] = target: T11, PACAP38 peptide fragment 6-20; test: as above
Experimental: as §4, §2, §3

[22] = target: T5, PACAP38 peptide fragment 27-38; test: SPR (Biacore 3000), solution competition: antibody pre-incubated 2 h with the peptide at 1:200 molar ratio (Ab:peptide), then injected over immobilised full-length PACAP38; readout % inhibition of antibody binding (filing counts >50 % as reactive)
Experimental: as §4, §2, §3

[23] = target: T18, PACAP38 peptide fragment 26-33 (human); test: SPR (Biacore 3000) solution competition against immobilised PACAP38
T18 construct: also called peptide No. 2
T18 peptide: VLGKRYKQ

31-38 [24] = target: T12, 31-38; test: SPR (Biacore 3000), solution competition: antibody pre-incubated 2 h with the peptide at 1:200 molar ratio (Ab:peptide), then injected over immobilised full-length PACAP38; readout % inhibition of antibody binding (filing counts >50 % as reactive)
Experimental: as §4, §2, §3

Binder | Optical Density [3] [OD] | Optical Density [5] [OD] | binding result (30-37) | binding result [16] | binding result [18] | Optical Density [19] [OD] | binding result [20] | binding result [21] | binding result [22] | other results
B1 | 0.24 | 0.05 | no binding (tested: 1:200 molar ratio (Ab:peptide)) | no binding (tested: 1:200 molar ratio (Ab:peptide)) | – | – | – | – | – | IC50: inhibition of PACAP38 (10 pM)-induced activation of human PAC1 receptor, cAMP assay in SH-SY5Y (CRL-2266) cells, POC versus antibody concentration [1]: 12 nM; IC50: inhibition of PACAP27 (10 pM)-induced activation of human PAC1 receptor, cAMP assay in SH-SY5Y (CRL-2266) cells, POC versus antibody concentration (human PACAP27): 3.7 nM; binding result [2]: no binding (tested: 500 ng/mL); binding result [4]: no binding (tested: 1:200 molar ratio (Ab: peptide fragment)); Optical Density [6]: 2.09 OD; binding result [7]: binds; binding result [8]: binds; binding result [9]: binds; binding result [10]: binds; binding result [11]: binds; binding result [12]: binds; binding result (31-38 [13]): no binding (tested: 1:200 molar ratio (Ab:peptide)); binding result [14]: no binding (tested: 1:200 molar ratio (Ab:peptide)); binding result [15]: no binding (tested: 1:200 molar ratio (Ab:peptide)); Optical Density [17]: 3.68 OD
B2 | 0.07 | 3.59 | no binding (tested: 1:200 molar ratio (Ab:peptide)) | no binding (tested: 1:200 molar ratio (Ab:peptide)) | no binding (tested: 100 ng/mL) | 0.06 | no binding (tested: 1:200 molar ratio (Ab:peptide)) | no binding (tested: 1:200 molar ratio (Ab:peptide)) | binds | –
B3 | 0.08 | 5.33 | – | – | no binding (tested: 100 ng/mL) | 0.05 | no binding (tested: 1:200 molar ratio (Ab:peptide)) | no binding (tested: 1:200 molar ratio (Ab:peptide)) | binds | binding result [23]: no binding (tested: 1:200 molar ratio (Ab: peptide fragment)); binding result (31-38 [24]): binds
